In article PMC13012646 one finds inhibition of Aβ8 FRET reporter cleavage (5 nM protease, 200 nM substrate, 37°C) data, which are given here for one substance.

The target of the assay is human kallikrein 7 variant hK7-2.7 (human) (UniProt P49862).
Chain of UniProt P49862 (P49862 30-253 Q52R/N119S/K129G/V157G/L189Q/Q228R/G233V): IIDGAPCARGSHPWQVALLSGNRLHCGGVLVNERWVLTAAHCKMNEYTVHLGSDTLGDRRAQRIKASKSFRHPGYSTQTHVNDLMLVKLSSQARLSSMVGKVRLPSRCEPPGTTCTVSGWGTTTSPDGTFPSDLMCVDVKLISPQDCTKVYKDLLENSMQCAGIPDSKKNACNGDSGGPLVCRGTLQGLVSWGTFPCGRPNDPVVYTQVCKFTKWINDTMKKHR

In the case of “lympho-epithelial Kazal-type related inhibitor (LEKTI) fragment consisting of domains 10–15 (domain or fragment)”, the inhibition of Aβ8 FRET reporter cleavage (5 nM protease, 200 nM substrate, 37°C) was above 130 nM.
